Measured values taken from the DeepSol protein solubility set.

Test: soluble on expression in E. coli; label from the status in PepcDB or PDB records

Sequence	soluble on expression in E. coli
MAHHHHHHMLKLQLDATAIEDELKLSANSKSANTVSSKTPRPDKFAAYHTLRLLFVPIWKRYRFHKQMVWATAIVAKHVLLKVHWRRQRRSERATDTFLHVLRIPRTKLRCAAHLLEGQVVRIQRAFRRHRARVQAVVELNYRKVRRDVEEAYWEAVVTQHEAELAVQQRPFSPVPKAVREVFGARAEARARFGSIQRRTSLLSSAGNSSYDTAVPSNELDVYNFHMIGRLPGSLLRFEMTSAVFAQLRRSAARAHLMDDFSETRARRAGMGGFMEHGDIAPTNTAFVRSRGKCRAQLPCFLPESVYAAILNNTCYLTSLMRDDRKLRAHLRQREHHLESY	not soluble
AKFREIANIALGKGAAIMADHLHEFIQLPVPHVGPLSYGELHMTLVDVIGRDSSVAVSQRFVGGGIHGEALVCLRGKDINQIGERLGYLLEFTPHNEIILNVSNLLVSSFLTSLGNQLDKQFSLRQPGIVDTITPYNEEQGESGELFTIEYTYMAEALDFECEVLFLIDKPSVEIIYEIMELI	not soluble
HPPMPDYTRSLESTLSFWASWVEELPHQRLYDAEVRRSMLVLRALTDLQTGGIVAAPTTSLPEDFGGIRNWDYRYVWLRDSALTIEALVEYGFSQAALQWRTWLLRAIAGDPENLRIMYGLGGERHLPERELQHLRGYENSVPVRVGNGAAEQYQADVVGEVMVALETIRRAGCLEDEFSWGMQKAILDFQEANFDRKDQGIWEMRSEPQYFTHGRAMMWAGFDRGIKAIEEFNLDGPIERWRELRAKLREEIMTNGFNEEIQSFTQCYDNTQVDASLLQLAQIGFIGFDDPKMLSTVARIEQELLDAHGFLHRYHTDGSDGLAGDEYPFLICSFWLVEQYASSNRLDEAKEKMNRILAVQSPLGLLAEEYSTHHGRLAGNYPQAFSHIGLISAARAINFEEARNR	not soluble
VGSEVSDKRTCVSLTTQRLPVSRIKTYTITEGSLRAVIFITKRGLKVCADPQATWVRDVVRSMDRKSNTRNNMIQTKPTGTQQSTNTAVTLTG	soluble
SVEVITHPGVNSNYLSKNLLRSIFGMRLRTWQDGLPVRVFVLPDDAPLHSTFTKQKLNIFPYQLRSAWDRMVYSGTGQAPFVVHTEEEMRARIASTPGAIGYLSGSMINDSVQVVHID	not soluble
MSKLMQNPVLHELKKQASFFIKEKIKTARLAVTDVTAEELLTEEVTGSDHSSIDSRSMAAITRVSFEVDQFQRIVKILRQRMVVFDRKEWRGMCNTLSMLNHLLLNGPLSVFSEFQHERAIIEDAIKMEWIDERGFDCGLKVRNIAEKVLRLLEDDMFLKDERERNRKQSIGRITGFGNSSFVIHSETNNGRDGSLMLSNHQTCENDCIADDHPFVENEHKTAQLLLSSST	soluble
GSSHHHHHHGSMLNMWKVRELVDKATNVVMNYSEIESKVREATNDDPWGPSGQLMGEIAKATFMYEQFPELMNMLWSRMLKDNKKNWRRVYKSLLLLAYLIRNGSERVVTSAREHIYDLRSLENYHFVDEHGKDQGINIRQKVKELVEFAQDDDRLREERKKAKKNKDKYVGVSSD	soluble
MKVELVFIPSPGVGHIRATTALAKLLVASDNRLSVTLIVIPSRVSDDASSSVYTNSEDRLRYILLPARDQTTDLVSYIDSQKPQVRAVVSKVAGDVSTRSDSRLAGIVVDMFCTSMIDIADEFNLSAYIFYTSNASYLGLQFHVQSLYDEKELDVSEFKDTEMKFDVPTLTQPFPAKCLPSVMLNKKWFPYVLGRARSFRATKGILVNSVADMEPQALSFFSGGNGNTNIPPVYAVGPIMDLESSGDEEKRKEILHWLKEQPTKSVVFLCFGSMGGFSEEQAREIAVALERSGHRFLWSLRRASPVGNKSNPPPGEFTNLEEILPKGFLDRTVEIGKIISWAPQVDVLNSPAIGAFVTHCGWNSILESLWFGVPMAAWPIYAEQQFNAFHMVDELGLAAEVKKEYRRDFLVEEPEIVTADEIERGIKCAMEQDSKMRKRVMEMKDKLHVALVDGGSSNCALKKFVQDVVDNVP	soluble
MTYFIDVPTMSDLVHDIGVAPFIGELAAALRDDFKRWQAFDKSARVASHSEVGVIELMPVADKSRYAFKYVNGHPANTARNLHTVMAFGVLADVDSGYPVLLSELTIATALRTAATSLMAAQALARPNARKMALIGNGAQSEFQALAFHKHLGIEEIVAYDTDPLATAKLIANLKEYSGLTIRRASSVAEAVKGVDIITTVTADKAYATIITPDMLEPGMHLNAVGGDCPGKTELHADVLRNARVFVEYEPQTRIEGEIQQLPADFPVVDLWRVLRGETEGRQSDSQVTVFDSVGFALEDYTVLRYVLQQAEKRGMGTKIDLVPWVEDDPKDLFSHTRGRAGKRRIRRVA	soluble
GPALVKQSHPKNPNDKHRSKKCKDPKPRVKKLKYHQYIPPDQKGEKNEPQMDSNYARLLQQQQLFLQLQILSQQKQHYNYQTILPAPFKPLNDKNSNSGNSALNNATPNTPRQNTSTPVRKPGPLPSSLDDLKVSELKTELKLRGLPVSGTKPDLIERLKPYQEVNSSGLAAGGIVAVSSSAIVTSNPEVTVALPVTTLHNTVTSSVSTLKAELPPTGTSNATRVENVHSPLPISPSPSEQSSLSTDDTNMADTFTEIMTMMSPSQFLSSSPLRMTNNEDSLSPTSSTLSNLELDAAEKDRKLQEKEKQIEELKRKLEQEQKLVEVLKMQLEVEKRGQQQRPLEAQPSAPGHSVKSDQKHGSLGSSIKDEASLPDCSSSRQPIPVASHAVGQPVSTGGQTLVAKKAVVIKQEVPVGQAEQQSVVSQFYVSSQGQPPPAVVAQPQALLTTQTAQLLLPVSIQGSSVTSVQLPVGSLKLQTSPQAGMQTQPQIATAAQIPTAALASGLAPTVPQTQDTFPQHVLSQPQQVRKVFTNSASSNTVLPYQRHPAPAVQQPFINKASNSVLQSRNAPLPSLQNGPNTPNKPSSPPPPQQFVVQHSLFGSPVAKTKDPPRYEEAIKQTRSTQAPLPEISNAHSQQMDDLFDILIKSGEISLPIKEEPSPISKMRPVTASITTMPVNTVVSRPPPQVQMAPPVSLEPMGSLSASLENQLEAFLDGTLPSANEIPPLQSSSEDREPFSLIEDLQNDLLSHSGMLDHSHSPMETSETQFAAGTPCLSLDLSDSNLDNMEWLDITMPNSSSGLTPLSTTAPSMFSADFLDPQDLPLPWD	soluble
MLSNDILRSVRYILKANNNDLVRILALGNVEATAEQIAVWLRKEDEEGFQRCPDIVLSSFLNGLIYEKRGKDESAPALEPERRINNNIVLKKLRIAFSLKTDDILAILTEQQFRVSMPEITAMMRAPDHKNFRECGDQFLRYFLRGLAARQHVKKG	soluble
MGSDKIHHHHHHMDCNGSGGSSDDDKPLHHDGGVRMKFFRSVGEVFGYSPFRSLAQHARMCGRAVGLLQQQFEALRRGNYEEVEELREEIDELEHHADQIKEEIRGNVTKSLMLPVDRHDLLEFLKVQDDILNNCEHVGHMVTFRKVSAPEDVWDEFLVLLSKLMEIVNNYEEMVERIMQLVETSFSKKEVNRALEYVPIIEQLEHECDLIQIGLHTKLFNLENSNPLDIQLMVTWVVHLGYVANAAARASDRFRIMILGR	not soluble
MGSDKIHHHHHHMTHRITILCDNTVGPVSGTLGEHGFAALVEWEGGSLLFDTGMGETLLRNAQRLGRNLAAVPRVVISHGHYDHGGGLWPLLRTCGSKTVLAHPGIFAPRYRVKDTGDPLSIGIPFDEAFLRGQGAHFDFNDRFREVGPGLYLTGEVPRTTAFETGDTGLFCDEAGCRPDPISDDQSLVIRTERGLVLLLGCCHAGVVNTARWALECTGETVVHTVIGGTHLGFCGREQLDETVKSLRELGVHKLVGSHCTGFAAAARLMHEFPGRFHPSAVGYTLEV	not soluble
GSQSSERVVIGSKPFNEQYILANMIAILLEENGYKAEVKEGLGGTLVNYEALKRNDIQLYVEYTGTAYNVILRKQPPELWDQQYIFDEVKKGLLEADGVVVAAKLGFRDDYALAVRADWAEENGVEKISDLAEFADQLVFGSDPEFASRPDGLPQIKKVYGFEFKEVKQMEPTLMYEAIKNKQVDVIPAYTTDSRVDLFNLKILEDDKGALPPYDAIIIVNGNTAKDEKLISVLKLLEDRIDTDTMRALNYQYDVEKKDAREIAMSFLKEQGLVK	soluble
MFQLPILNFSPQQVAGVCETLEESGDVERLGRFLWSLPVAPAACEALNKNESVLRARAIVAFHGGNYRELYHILENHKFTKESHAKLQALWLEAHYQEAEKLRGRPLGPVDKYRVRKKFPLPRTIWDGEQKTHCFKERTRHLLREWYLQDPYPNPSKKRELAQATGLTPTQVGNWFKNRRQRDRAAAAKNRLQQQVLSQGPGRVLRSEGEGTPEVLGVASSPAASLSSKAATSAISITSSDSECDI	soluble
MILLLAGTSDARELAVMIQQAGYNVTATVVTDHAAEQLRSAGIRAYVGRLDASQLADLAKAEGAKAIVDASHPFAEEASKNAMQAAADAGLPYIRYERQASSFSSEKVTFVDSYEEAADLAAEKGGVVMLTTGSKTIDIFAARLIGRPDVKVIARMLPRKDNLDKCERLGFSQEQIVMMQGPFTKELDRALYRHFGVTVVVTKESGKVGFVDEKIAAAEELGIDVIVIRRPRLSYGIVHHDFAGVLDALKQHAPLPTV	not soluble
MASKAVILAGGLGTRLSEETIVKPKPMVEIGGKPILWHIMKMYSVHGIKDFIICCGYKGYVIKEYFANYFLHMSDVTFHMAENRMEVHHKRVEPWNVTLVDTGDSSMTGGRLKRVAEYVKDDEAFLFTYGDGVADLDIKATIDFHKAHGKKATLTATFPPGRFGALDIQAGQVRSFQEKPKGDGAMINGGFFVLNPSVIDLIDNDATTWEQEPLMTLAQQGELMAFEHPGFWQPMDTLRDKVYLEGLWEKGKAPWKTWE	soluble
MASNDPGNEVSSYSPTSPSYVKFFTQSNLEKLPKYKEKKAASAKQTAPNNSNGGSEEEITCALDYLIPPPMPKNQQYRAFGSIW	soluble
MSLKLITCDLDGTLLNSSMEISDANVQAIKRAQENGIEFMVASGRAPHESQPMLKEYWIDCSFINLNGGLVFDTAGNLIVKNPLKLETAKKICRLLKKEGFYFELVTSNHVYSEDLSQRITNVAHLMVELNPMLTFKEAVLVSASKPAIVSIQQVPSYEDLMDEPGTEVMKILVFDSRGQYAFTDVIKKIEEIDKLSITSSAADNIEINAASAQKGQSLLDYAAAKGIKREEIAAIGDNLNDESMIQAAGTGVAMGNAVPQIKTIASFVTKSNNEDGVAWAIDKIIADNQKEGHHHHHH	soluble
MGSDKIHHHHHHMTTPTPVRAIVPTWLYEGLGLLVANPKVGKSTLMLQIVVAVTKGGEMWGQSVPRAKVLMIDLETNERRLRRKLEQAGAVGIESGWLLYATSWPRGLLGIDEIANTLDRDPEIKLVVIDTLQRFRDPGAGKQNAYAADYEALGPLQQLCRDRPGLAIVCVHHKRKSISDDPIDSISGSAAIAGACDSIWIMSRKGSEYTLHIQGRDWERDEDTFPIERVDQGWQLVNGPRYSSNEAEVLKHLEISGGMTGPQLGEALGIHRVSAYERLKRMADRGLVRFAGEHWHVS	not soluble
ADNEEDVEAEEEYTELTDISGVGPSKAESLREAGFESVEDVRGADQSALADVSGIGNALAARIKADVGGLEVESETEAEVEEEGGEEAPDEDVETELQARGLTEKTPDLSDEDARLLTQRHRVGKPQFNRQDHHKKKRVSTSWRKPRGQLSKQRRGIKGKGDTVEAGFRSPTAVRGKHPSGFEEVRVHNVDDLEGVDGDTEAVRIASKVGARKRERIEEEAEDAGIRVLNPTYVEVEVSE	soluble
MGSDKIHHHHHHMSHQSTHPHHTWVQSHHPVHLETKSPPHKEPMFYYFAYGSCMCPVDLKRSLGENTHPYIIGPGVLKGYRLGFYLYLPSRKCGVLDIVKDPKASVKGVLYQLPLRLSEYLDQREGVSQNLYRHESVEIHSHSRVYQDVRTYVVVNKSEEEVAPNDWYFNVVLRGAVTCGLPEEYCWHLFNHMHKLQQRHQEQKFRRSA	not soluble
